# The supplement of paper PMC9170038
# Test system: MS2 coat protein
# Experiment: apparent KD of MS2 coat protein; designed switch direction (-1 OFF switch, 1 ON switch): 1; higher = weaker reporter binding
# Procedure, shortened: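 An oligonucleotide input, 200 uM small-molecule ligand, or no input was present during titration of SNAP-549-labelled MS2 coat protein, which was doubled from 0.7 or 1.5 nM to 3 µM. Designed RNA switches had been transcribed on Illumina chips by stalled E. coli RNA polymerase. Apparent KD per design is the median over clusters of curves fitted to normalised cluster fluorescence.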
# [1] = input ligand: microRNA oligo, concentration not stated
# [2] = Eterna round: R95, input ligand: FMN 200 uM
# [3] = Eterna round: R95, input ligand: microRNA oligo, concentration not stated
# [4] = Eterna round: R95, input ligand: none
Sequence,apparent KD of MS2 coat protein (input ligand: FMN 200 uM) [nM],apparent KD of MS2 coat protein [1] [nM],apparent KD of MS2 coat protein (input ligand: none) [nM],apparent KD of MS2 coat protein [2] [nM],apparent KD of MS2 coat protein [3] [nM],apparent KD of MS2 coat protein [4] [nM]
"GUUUGAUGGUGAGGAUAUGUACAAAGAUAGGGUAUAGAAGGCAUGCGCCGGGAAACCGCGGUACAUGAGGAUCACCCAUGUGUC [Eternabot solution 36] (Eterna round: R96, puzzle: Same State NG 1)",207,54.9,121,,,
"UAAAGAUCGCGAGGAUAUCGCGAGGAUCACCCGUGAGAAGGCGCAGAGCCGAGGAUCACCCGGCUGAUCCUGAGGAGGAGGUCU (Eterna round: R96, puzzle: Same State NG 1)",124,202,318,,,
"UAAAUAAUGUAAGGAUAUACAUGAGGAAUUCUCGUAGAAGGUACAUGACAUGAGGAUCACCCAUGUAUCGCUCAGAAGAGCGUA [Mat - Same State NG 1 - JL mod - D28] (Eterna round: R96, puzzle: Same State NG 1)",1660,39.9,298,,,
"UAAGCAUUCCUAGGAUAUGUAGGAUAUGUACAUGAGGAUCACCCAUGUCUACCAGAGACAGAAGGACAGAAGGAGGAAUGCUUC [pwkr ssNG2 2FMN 1F5s.8] (Eterna round: R96, puzzle: Same State NG 2)",19.1,25.8,36.5,,,
"UAAGUCAUGUAAGGAUAUGCAGCCGAAACGGCUGCAGAAGGUACUAUAAUUACAUGAGGAUCACCCAUGUUAUAAAAUUUAAAU [Mat - Same State NG 1 - JL mod - D78] (Eterna round: R96, puzzle: Same State NG 1)",24.1,43.2,60.7,,,
UACAAUCUAUCUGAGGAUAUCAUGAAUUUAACAUGAGGAUCACCCAUGUGCAGGAAAACUGCAUAUGAGAAGGCAGAUAGAUUGU [salish99_ss2_r3_061] (puzzle: Same State 2),,,,71.3,28,94.1
UACAAUCUAUCUGAGGAUAUCAUGAUUUUAACAUGAGGAUCACCCAUGUGCAGGAAAACUGCAUAUGAGAAGGCAGAUAGAUUGU [salish99_ss2_r3_070] (puzzle: Same State 2),,,,199,69.7,178
"UAGGGACAUGAGGAUCACCCAUGUGCCUCAUAUGGAGAAACUCAGGAUAUGCUGAGGAUCACCCGGCAGAAGGGAGAUCCGAGG (Eterna round: R96, puzzle: Same State NG 3)",86.6,33,53.4,,,
"UAGUACAUGCUUUUUGUCUGUCUUAGAUAACAUGAGGAUCACCCAUGUAAGGUGAAAGUUAUAUAGUUUAUGAAUAU [JR_SHM208A_Sub058] (Eterna round: R96, puzzle: Sensor for hsa-mir-208a)",242,309,241,,,
UAGUACAUGCUUUUUGUCUGUCUUAGAUAACAUGAGGAUCACCCAUGUAAGGUGAAAGUUAUAUAGUUUAUGAAUAU [JR_SHM208A_Sub058] (puzzle: Sensor for hsa-mir-208a),,,,188,346,264
"UAUCCAUAGAUAGGAUAUUAGAGAACAUGAGGAUCACCCAUGUUUGGCUUGGUUUUAAGCUAAUCUAAGAAGGAUCUUGAUGAA [SameState NG2 #9] (Eterna round: R96, puzzle: Same State NG 2)",13.3,22.9,36.5,,,
"UAUCGUUUGAUAGGAUAUCGCUAUACAUGAGGAUCACCCAUGUUUACCACGCUGGUUUUUCAUACCGAGAAGGAUUCUGAUGAA [salish99_SSNG02_r04_004] (Eterna round: R96, puzzle: Same State NG 2)",29,19.6,32.5,,,
"UAUGACUUACAAGGAUAUUAAUGACAUGAGGAUCACCCAUGUGGCUGUGUGUGUUAGAUAAGCUUUAAGAAGGUGUGCGUGUCU [JR_SSNG2_Sub096] (Eterna round: R96, puzzle: Same State NG 2)",361,288,386,,,
"UAUUAAUCUGUAGGAUAUCUAGGAUAUGGACGAGGAUCACCCGAGCAGCAUCAGCGCACCAGAGGAGAGAAGGACGCUCUGGUG [pwkr ssNG2 2F5 2FMN.25] (Eterna round: R96, puzzle: Same State NG 2)",332,93.7,469,,,
"UAUUGUUCCUGAGGAUAUCAGUUGUUUGCAUUAUGAGAAGGCAGUACAUGAGGAUCACCCAUGUUGGGAUUUGAUAGAAUGAUA [JR_SSNG1_Sub007] (Eterna round: R96, puzzle: Same State NG 1)",,133,,,,
"UCAAGAUCGCGAGGAUAUCGCGAGGAUCACCCGUGAGAAGGCGCAGAGCCGAGGAUCACCCGGCUGAUCCUGAGGAGGAGGUAA (Eterna round: R96, puzzle: Same State NG 1)",139,234,420,,,
"UCAAUCAUGUAAGGAUAUGCAGCCGAAACGGCUGCAGAAGGUACUAUAAUUACAUGAGGAUCACCCAUGUUAUAAAAUUAAAAU [Mat - Same State NG 1 - JL mod - D69] (Eterna round: R96, puzzle: Same State NG 1)",35.3,101,130,,,
"UCACCUAUCGACAUGAGGAUCACCCAUGUGGAUUGAGCUUCCAAGGAUAUCGGCGCACAACCCAUCGAGAAGGUGGAAAGAUAC [Eternabot solution 32] (Eterna round: R96, puzzle: Same State NG 3)",16.6,12.3,18,,,
"UCAGUCAUGUAAGGAUAUGCAGCCGAAACGGCUGCAGAAGGUACUAUAAUUACAUGAGGAUCACCCAUGUUAUAAAAUUUAUAU [Mat - Same State NG 1 - JL mod - D64] (Eterna round: R96, puzzle: Same State NG 1)",24.4,44.9,58.8,,,
"UCGAGCGUACUUGCAGACAUGAGGAUCACCCAUGUAAAUGGGAAGGAUAUGGUACCGUUUCGGUACCAGAAGGUCCUAGGUGCU [salish99_SSNG3_r04_306] (Eterna round: R96, puzzle: Same State NG 3)",250,327,1290,,,
"UCGGGCGUACUUGCAGACAUGAGGAUCACCCAUGUAAAUGGGAAGGAUAUGGUACCGUUUCGGUACCAGAAGGUCCUGGGUGCU [salish99_SSNG3_r04_308] (Eterna round: R96, puzzle: Same State NG 3)",810,281,1960,,,
UCUAGACAUGAGGAUCACCCAUGUCGAUAUGACACAGGAUAUCGGUACUCAUAGAGUACGCGAGAAGGGUGACUUC [Same State 1 - Mod of Vinnie Gere v.3] (puzzle: Same State 1),,,,112,115,166
"UCUGCAAGAACAGGAUAUGGGUUCAGAGCGGGAGUGCGCUUUGAUACAUGAGGAUCACCCAUGUCCCAGAAGGGUUCAAGCGGC [Maedraedbi] (Eterna round: R96, puzzle: Same State NG 2)",32.9,35.2,188,,,
UCUUGGUUUUUGCUCGUUUUUUGUGUUGAACAUGAGGAUCACCCAUGUAUUGUACAAUCCAAUUUAAUAAUGGUCCA [Mod of one of JR's submissions 3] (puzzle: Sensor for hsa-mir-208a),,,,44.2,42.2,47.8
"UCUUGGUUUUUGCUCGUUUUUUGUGUUGAACAUGAGGAUCACCCAUGUAUUGUACAAUCCAAUUUAAUAAUGGUCCG [JMF 48] (Eterna round: R96, puzzle: Sensor for hsa-mir-208a)",105,70.1,99.2,,,
UCUUGGUUUUUGCUCGUUUUUUGUGUUGAACAUGAGGAUCACCCAUGUAUUGUACAAUCCAAUUUAAUAAUGGUCCG [JMF 48] (puzzle: Sensor for hsa-mir-208a),,,,74.7,81.7,94
"UCUUGGUUUUUGCUCGUUUUUUGUGUUGAACAUGAGGAUCACCCAUGUAUUGUACAGUCCAAUUUGAUAAUGGUCCG [JMF 54] (Eterna round: R96, puzzle: Sensor for hsa-mir-208a)",50.2,28.1,55.1,,,
